Test [1] has as its target T1, Flag-mCherry-ColKhan-Cys-6His (Photorhabdus khanii). Kind of test: EIA 8 plex n° 2: colicin coated at 100 nM, Im-RLuc8 at 100 nM, luminescence; light bar alone, dark bar with the 7 other unfused Im proteins.
Test [2] concerns the target T2, Flag-mCherry-ColAP41-Cys-6His (Pseudomonas aeruginosa AP41). Described as above.
For test [3], the target named is T3, Flag-EmGFP-ColE2-6His (Escherichia coli).
T3 construct: Coated on the plate or sprayed on the membrane; also called Colicin E2
Described as above.

The target of test [4] is T4, Flag-mCherry-ColSyr-Cys-6His (Pseudomonas syringae B728A). The description is as above.
The target in test [5] is T5, Flag-mCherry-ColErw-Cys-6His (Pectobacterium carotovorum). The description is as above.
Test [6] has as its target T6, Flag-mCherry-ColE9-6His (Escherichia coli).
T6 construct: also called Colicin E9
Described as above.

Test [7] concerns the target T7, Flag-mCherry-ColLeaf-Cys-6His (Pseudomonas sp Leaf83). Kind of test: EIA 8 plex n° 2: colicin coated at 100 nM, Im-RLuc8 alone at 100 nM, luciferase signal (FIG. 4, light grey bars).
The target of test [8] is T1, Flag-mCherry-ColKhan-Cys-6His. Nature of the test: EIA 8 plex n° 1: colicin coated at 100 nM, Im-RLuc8 at 100 nM, luminescence; light bar alone, dark bar with the 7 other unfused Im proteins.
The target in test [9] is T2, Flag-mCherry-ColAP41-Cys-6His. The description is as above.
Test [10] concerns the target T3, Flag-EmGFP-ColE2-6His. The description is as above.
Test [11] has as its target T4, Flag-mCherry-ColSyr-Cys-6His. Described as above.
The target of test [12] is T8, Flag-EmGFP-ColE7-6His (Escherichia coli).
T8 construct: also called Colicin E7
The description is as above.

In test [13] the target is T9, Flag-mCherry-ColE8-6His (Escherichia coli).
T9 construct: also called Colicin E8
The test is described as above.

Test [14] concerns the target T6, Flag-mCherry-ColE9-6His. The test is described as above.
The target of test [15] is T7, Flag-mCherry-ColLeaf-Cys-6His. Nature of the test: EIA 8 plex n° 2: colicin coated at 100 nM, Im-RLuc8 at 100 nM, luminescence; light bar alone, dark bar with the 7 other unfused Im proteins.
Test [16] concerns the target T5, Flag-mCherry-ColErw-Cys-6His. Kind of test: EIA 8 plex n° 2: colicin coated at 100 nM, Im-RLuc8 alone at 100 nM, luciferase signal (FIG. 4, light grey bars).
The target is the same in test [17]. Nature of the test: EIA 8 plex n° 1: colicin coated at 100 nM, Im-RLuc8 alone at 100 nM, luciferase signal (FIG. 3, light grey bars).
Test [18] has the same target. Kind of test: EIA 8 plex n° 1: colicin coated at 100 nM, Im-RLuc8 alone at 100 nM, luciferase signal.
For test [19], the target named is T1, Flag-mCherry-ColKhan-Cys-6His. Kind of test: EIA 8 plex n° 2: colicin coated at 100 nM, Im-RLuc8 alone at 100 nM, luciferase signal (FIG. 4, light grey bars).
Test [20] has the same target. Nature of the test: EIA 8 plex n° 1: colicin coated at 100 nM, Im-RLuc8 alone at 100 nM, luciferase signal (FIG. 3, light grey bars).

B1: Avitag-RLuc8-ImLeaf-6His (other)
chain: MGLNDIFEAQKIEWHEGGSGGSGGSASKVYDPEQRKRMITGPQWWARCKQMNVLDSFINYYDSEKHAENAVIFLHGNATSSYLWRHVVPHIEPVARCIIPDLIGMGKSGKSGNGSYRLLDHYKYLTAWFELLNLPKKIIFVGHDWGAALAFHYAYEHQDRIKAIVHMESVVDVIESWDEWPDIEEDIALIKSEEGEKMVLENNFFVETVLPSKIMRKLEPEEFAAYLEPFKEKGEVRRPTLSWPREIPLVKGGKPDVVQIVRNYNAYLRASDDLPKLFIESDPGFFSNAIVEGAKKFPNTEFVKVKGLHFLQEDAPDEMGKYIKSFVERVLKNEQGGGSTAGGGGSKRQFADYTEAEFIAFMEDIFRENEAETDDRLDVLLDQFREITGHPDGTDLIYYCESDAECTPERITQKVKSWRAANGLPGFKSTLEGGGSHHHHHH
notes: Immunity protein fused to the luciferase RLuc8 as reporter; added in solution; also called ImLeaf-Rluc8
Consider B1, for which the binding result in test [1], in [2], in test [3], in test [4], in [5] and in test [6] was “no binding (tested: 100 nM)” each time. The molecule also gave an RLU in [7] of over 2.4e+06 RLU.

B2: Myc-RLuc8-ImErw-Avitag-6His (other)
chain: MGGEQKLISEEDLGGSASKVYDPEQRKRMITGPQWWARCKQMNVLDSFINYYDSEKHAENAVIFLHGNATSSYLWRHVVPHIEPVARCIIPDLIGMGKSGKSGNGSYRLLDHYKYLTAWFELLNLPKKIIFVGHDWGAALAFHYAYEHQDRIKAIVHMESVVDVIESWDEWPDIEEDIALIKSEEGEKMVLENNFFVETVLPSKIMRKLEPEEFAAYLEPFKEKGEVRRPTLSWPREIPLVKGGKPDVVQIVRNYNAYLRASDDLPKLFIESDPGFFSNAIVEGAKKFPNTEFVKVKGLHFLQEDAPDEMGKYIKSFVERVLKNEQKLPGGSNLKEKLEDYTEAEFISYLKEFFDNPMGLRGKELETHLDSLVEHFDKIVFHPEGNGLIFYPPDERDDSPEGVLNEIKRWRKSQGLPLFKDSKGGSGGSGLNDIFEAQKIEWHELEGGGSHHHHHH
notes: Immunity protein fused to the luciferase RLuc8 as reporter; added in solution; also called ImErw-Rluc8
As to B2, the binding result in test [8] is “binds”; in [9], “no binding (tested: 100 nM)”; in [10], “no binding (tested: 100 nM)”; in test [11] it was “no binding (tested: 100 nM)”; in test [12] it was “no binding (tested: 100 nM)”; in test [13], “no binding (tested: 100 nM)”. The binding result in test [14] and in test [15] was “no binding (tested: 100 nM)” in each case. The RLU in test [16] was over 2.4e+06 RLU; in test [17], over 2e+06 RLU.

B3: Avitag-RLuc8-ImKhan-6His (other)
chain: MGLNDIFEAQKIEWHEGGSGGSGGSASKVYDPEQRKRMITGPQWWARCKQMNVLDSFINYYDSEKHAENAVIFLHGNATSSYLWRHVVPHIEPVARCIIPDLIGMGKSGKSGNGSYRLLDHYKYLTAWFELLNLPKKIIFVGHDWGAALAFHYAYEHQDRIKAIVHMESVVDVIESWDEWPDIEEDIALIKSEEGEKMVLENNFFVETVLPSKIMRKLEPEEFAAYLEPFKEKGEVRRPTLSWPREIPLVKGGKPDVVQIVRNYNAYLRASDDLPKLFIESDPGFFSNAIVEGAKKFPNTEFVKVKGLHFLQEDAPDEMGKYIKSFVERVLKNEQGGGSTAGGGGSELKNKLEDYTEAEFLSLLNKIWAVDVSEEEHDNLIDHFEKLSEHPNGNGLIFYPENGVEDSPEGVLKVIKEWRAKNGKPGFKKLEGGGSHHHHHH
notes: Immunity protein fused to the luciferase RLuc8 as reporter; added in solution; also called ImKhan-Rluc8; ImKahn
B3: the binding result in test [9], in test [10], in test [11], in test [12], in test [13] and in test [14] was “no binding (tested: 100 nM)” each time. The binding result in test [15] is “no binding (tested: 100 nM)”. Further, the RLU in test [18] is over 100000 RLU; in test [19], over 2.4e+06 RLU; in test [20] it was over 2e+06 RLU.
